One assay deals with SARS-CoV-2 Spike. As to the kind of experiment: SPR. For orientation: SPR reads the build-up and loss of mass on a sensor chip optically.
The target in the next assay is WIV1. As to the kind of experiment: ELISA.
In another assay the target is RmYN02. As to the kind of experiment: ELISA. (In an ELISA, binding on a coated surface is turned into a signal by an enzyme label.)
For the next assay, the target named is Yunnan2011. As to the kind of experiment: ELISA.
A further assay addresses Rf1. As to the kind of experiment: ELISA.
For a further assay, the target named is GX-Pangolin. As to the kind of experiment: ELISA.
The target in the next assay is SARS-CoV. As to the kind of experiment: ELISA.
Another assay has as its target RaTG13. As to the kind of experiment: ELISA.
The target in another assay is SHC014. As to the kind of experiment: ELISA.
The target of another assay is BM-4831. As to the kind of experiment: ELISA.
The target of the next assay is Rs4081. As to the kind of experiment: ELISA.
The target of the next assay is BtKY72. As to the kind of experiment: ELISA.
Assay [1] addresses SARS-CoV Spike (SARS-CoV) (UniProt P59594). As to the kind of experiment: SPR.

Where only a bound is given, the exact number is not on record here.

Usually Kd stands for the concentration at which binding is half-saturated. One may read the EC50 as the concentration that produces a half-maximal response. In turn, ADG-2 showed a Kd in the assay with SARS-CoV-2 Spike of 0.983 pM. The EC50 is 0.005 µg/mL with WIV1; > 10 µg/mL with RmYN02; > 10 µg/mL in the assay with Yunnan2011; > 10 µg/mL in the assay with Rf1; 0.089 µg/mL in the assay with GX-Pangolin; 0.002 µg/mL with SARS-CoV. Moreover, the 50% effective concentration (EC50) with RaTG13 is > 10 µg/mL; with SHC014, 0.003 µg/mL; in the assay with BM-4831, 0.711 µg/mL; with Rs4081, > 10 µg/mL; with BtKY72, 0.005 µg/mL.

Take COVA1-16: the figures for the equilibrium dissociation constant (Kd) (in the assay with SARS-CoV-2 Spike; in assay [1]) were 1.29 pM and 19500 pM, respectively. Further, the EC50 in the assay with WIV1 was > 10 µg/mL; with RmYN02, > 10 µg/mL; with Yunnan2011 it was > 10 µg/mL; with Rf1, 7.07 µg/mL; in the assay with GX-Pangolin, 0.043 µg/mL; in the assay with SARS-CoV it was > 10 µg/mL. The EC50 with RaTG13 is 0.614 µg/mL; with SHC014 it was 0.049 µg/mL; with BM-4831 it was > 10 µg/mL; in the assay with Rs4081, > 10 µg/mL; with BtKY72, > 10 µg/mL.

Take DH1047: in the assay with SARS-CoV-2 Spike, the Kd is 1.06 pM. Moreover, the EC50 in the assay with WIV1 is 0.003 µg/mL; in the assay with RmYN02, 0.01 µg/mL; with Yunnan2011, 0.011 µg/mL; in the assay with Rf1, > 10 µg/mL; with GX-Pangolin it was 0.006 µg/mL; with SARS-CoV it was 0.009 µg/mL. The EC50 with RaTG13 is 0.003 µg/mL; with SHC014, 0.003 µg/mL; in the assay with BM-4831, 0.002 µg/mL; with Rs4081 it was 0.013 µg/mL; with BtKY72 it was 0.003 µg/mL.

For the substance REGN10985, the Kd in the assay with SARS-CoV-2 Spike turned out to be 8.72 pM. Further, the EC50 was 0.003 µg/mL with WIV1; > 10 µg/mL with RmYN02; > 10 µg/mL in the assay with Yunnan2011; > 10 µg/mL in the assay with Rf1; 3.3 µg/mL with GX-Pangolin; > 10 µg/mL in the assay with SARS-CoV. Also, the concentration for a half-maximal effect (EC50) with RaTG13 was > 10 µg/mL; with SHC014, 0.003 µg/mL; with BM-4831, 0.72 µg/mL; with Rs4081 it was > 10 µg/mL; in the assay with BtKY72 it was 0.001 µg/mL.

As for S2H97, the Kd with SARS-CoV-2 Spike came out at 4.53 pM. Also, the EC50 in the assay with WIV1 came out at 0.54 µg/mL; in the assay with RmYN02, 0.011 µg/mL; with Yunnan2011, 0.124 µg/mL; in the assay with Rf1 it was 0.005 µg/mL; in the assay with GX-Pangolin, 0.026 µg/mL; with SARS-CoV, 0.015 µg/mL. Moreover, the EC50 was 0.008 µg/mL with RaTG13; > 10 µg/mL with SHC014; 0.009 µg/mL with BM-4831; 0.009 µg/mL in the assay with Rs4081; 0.006 µg/mL with BtKY72.

As to S2X259, the Kd with SARS-CoV-2 Spike came to 0.895 pM. Further, the EC50 with WIV1 was 0.005 µg/mL; with RmYN02, > 10 µg/mL; with Yunnan2011, > 10 µg/mL; with Rf1 it was > 10 µg/mL; in the assay with GX-Pangolin it was 0.035 µg/mL; with SARS-CoV, 0.016 µg/mL. For the same substance, the EC50 in the assay with RaTG13 is > 10 µg/mL; in the assay with SHC014, 0.007 µg/mL; with BM-4831, 0.005 µg/mL; with Rs4081, 2.29 µg/mL; with BtKY72 it was 0.004 µg/mL.

In the assay with SARS-CoV-2 Spike, S309 showed an equilibrium dissociation constant (Kd) of 1.94 pM. For the same substance, the EC50 with WIV1 is 0.023 µg/mL; with RmYN02 it was > 10 µg/mL; with Yunnan2011 it was > 10 µg/mL; in the assay with Rf1, > 10 µg/mL; with GX-Pangolin, 0.052 µg/mL; in the assay with SARS-CoV it was 0.011 µg/mL. The EC50 in the assay with RaTG13 is > 10 µg/mL; in the assay with BM-4831, 0.286 µg/mL; with Rs4081, > 10 µg/mL; with BtKY72 it was > 10 µg/mL.
